B1: EP35-C6 scFv (scFv)
scFv: QVQLVESGGGVVQPGGSLRLSCAASGFPFSRFGIHWVRQAPGKGLDWVAFIRTDGGSQHYADSVKGRFTISRDNSENMVYLQMNSLRVDDTALYYCAKDPPRVTGNTGYDYDWGQGVQVTVSSGGGGSGGGGSGGGGSDIVMTQSPDSLAVSLGERATINCKSSQSVLYSANNKNCLAWYQQKSGQPPKLLIYWASTRESGVPGRFSGSGSGTDFTLTISSLQAEDVAVYYCQQYYSPPRTFGQGTKLEIK
notes: VH-VL orientation; also called EP35-C06; not shown: C-terminal flag and 6xHIS tag
B2: EP160-H02 scFv (scFv)
scFv: QVQLVQSGAEVKKPGASVKVSCKASGYTFTSYGISWVRQAPGQGLEWMGGIIAYNGNTNYAQKLQGRVTMTTDTSTSTAYMELRSLRSDDTAVYYCARDPPEYSSSAGTDYWGQGTLVTVSSGGGGSGGGGSGGGGSEIVMTQSPATLSVSPGEGVTLSCRASQSVSSNLAWYQQRPGQAPRLLIYGASIKATDVPDRFSGGGSGTDFTLSITNLQSEDFAVYYCQQYHTWSPVTFGGGTKVEIK
notes: VH-VL orientation; not shown: C-terminal flag and 6xHIS tag
B3: EP35-F7 scFv (scFv)
scFv: EVQLVQSGGGVVQPGRSLRLSCAASGFTFSSYGMHWVRQAPGKGLEWVAVIWYDGSNKYYADSVKGRFTISRDNSKNTLYLQMNSLRAEDTAVYYCARDGWKGFDYWGQGTTVTVSSGGGGSGGGGSGGGGSEIVLTQSPATLSVSPGEGVTLSCRASQSVSSNLAWYQQRPGQAPRLLIYGASIKATDVPDRFSGGGSGTDFTLSISNLQSEDFAVYYCQQYHTWPPVTFGGGTKVEIK
notes: also called EP35-F07; not shown: C-terminal flag and 6xHIS tag
B4: EP97-A01 scFv (scFv)
scFv: B3 scFv with R19K
notes: as for B2
B5: EP160-E03 scFv (scFv)
scFv: B3 scFv with R16K, K102T
notes: as for B2
B6: EP97-G05 scFv (scFv)
scFv: EVQLVQSGAEVKKPGASVKVSCKASGYTFTSYGISWVRQAPGQGLEWMGWISAYNGNTNYAQKLQGRVTMTTDTSTSTAYMELRSLRSDDTAVYYCARDYGDPSGDDYWGQGTLVTVSSGGGGSGGGGSGGGGSEIVLTQSPATLSVSPGEGVTLSCRASQSVSSNLAWYQQRPGQAPRLLIYGASIKATDVPDRFSGGGSGTDFTLSISNLQSEDFAVYYCQQYHTWPPVTFGGGTKVEIK
notes: VH-VL orientation; also called EP097-G05; not shown: C-terminal flag and 6xHIS tag
B7: EP97-B03 scFv (scFv)
scFv: QLVQSGAEVKKPGASVKVSCKASGYTFSSYGITWVRQAPGQGLEWMGWISAYNGNTNYAQKFQGRVTLTTDTSTSIAYMELRSLTSDDTAVYYCATGGQEDYWGQGTLVTVSSGGGGSGGGGSGGGGSEIVLTQSPATLSVSPGERATLSCRASQSVSSNLAWYQQKPGQAPRLLIYGASTRATGIPARFSGSGSGTEFTLTISSLQSEDFAVYYCQQYNSWPPLTFGGGTKVEIK
notes: as for B2
B8: EP97-F01 scFv (scFv)
scFv: QVQLVQSGAEVKKPGASVKVSCKASGYTFTSYGISWVRQAPGQGLEWMGWISAYNGNTNYAQKLQGRVTMTTDTSTSTAYMELRSLRSDDTAVYYCARDHIAAAGDYWGQGTLVTVSSGGGGSGGGGSGGGGSEIVMTQSPATLSVSPGEGVTLSCRASQSVSSNLAWYQQRPGQAPRLLIYGASIKATDVPDRFSGGGSGTDFTLSITNLQSEDFAVYYCQQYHTWPPVTFGGGTKVEIK
notes: as for B2
B9: EP35-A7 scFv (scFv)
scFv: EVQLVESRGGVVQPGGSLRLSCAASGFTFSSYGMHWVRQAPGKGLEWVAFIRYDGSNKYYADSVKGRFTISRDNSKNTLYLQMNSLRAEDTAVYYCAKETVTTNYYYYMDVWGKGTTVTVSSGGGGSGGGGSGGGGSDVVMTQSPLSLPVTLGQPASISCRSSRSLEYNDGNTYLNWFHQRPGQSPRRLIYKVSNRDSGVPDRFSGSGSDTDFTLKISRVEAEDVGIYYCMQGTHWPLTFGQGTRLEIK
notes: as for B2
B10: EP35-D6 scFv (scFv)
scFv: QVQLVQSGTEVKKPGASVKVSCKASGYTFTNNAITWVRQAPGQGLEWMGYISTSSDNINYAQKFRGRLTLTTDTSTGTAYMELSSLRSDDTATYYCARDGIFGGRDDPWGQGTLVTVSSGGGGSGGGGSGGGGSDIVMTQSPSSLSASVGDRVTITCQASQDISNYLNWYQQKPGKAPKLLIYDASNLETGVPSRFSGSGSETDFTITISSLQPEDIATYYCQQYDNLPLTFGGGTKVR
notes: as for B2
B11: EP35-E6 scFv (scFv)
scFv: QVQLVESGGALVQPGGSLRLSCVVSGFPFSTAWMNWVRQAPGKGLEWVARIKSEAHGGTTHYAPPVQGRFTISRDDSKNTVSLQMNSLKTEDTGVYYCGDFQWGQGTLVTVSSGGGGSGGGGSGGGGSVIWMTQSPSSLSASVGDRITITCQASQDISNFLNWYQQKPGEAPKLLLYDASNLERGVPSRFSGGGSGTDFTLTISSLQPEDIATYFCQQYDNLPLTFGGGTKVEIK
notes: as for B2
B12: EP160-G05 scFv (scFv)
scFv: EVQLVQSGAEVKKPGASVKVSCKASGYTFTSYGISWVRQAPGQGLEWMGWISAYNGNTNYAQKLQGRVTMTTDTSTSTAYMELRSLRSDDTAVYYCARDPSMDVWGQGTTVTVSSGGGGSGGGGSGGGGSEIVLTQSPATLSVSPGERATLSCRASQSVSSNLAWYQQKPGQAPRLLIYGASTRATGIPARFSGSGSGTEFTLTISSLQSEDFAVYYCQQYNSWPPITFGQGTRLEIK
notes: as for B2
B13: EP35-B05 scFv (scFv)
scFv: B8 scFv with H100S, I101G, A102N, A103S, A104P, G105I, T209S
notes: VH-VL orientation; also called EP35-B5; not shown: C-terminal flag and 6xHIS tag
B14: EP160-C07 scFv (scFv)
scFv: B8 scFv with V2M, H100A, I101V, A103G, A104S, G105R, D106G, M137L, T209S, G234E
notes: VH-VL orientation; also called EP160-007; not shown: C-terminal flag and 6xHIS tag
B15: EP35-C8 scFv (scFv)
scFv: QVQLVQSGAEVKKPGASVKVSCKASGYTFTSYGISWVRQAPGQGLEWMGWISAYNGNTNYAQKLQGRVTMTTDTSTSTAYMELRSLGSDDTAVYYCARDSGSSDLDYWGQGTLVTVSSGGGGSGGGGSGGGGSEIVMTQSPATLSVSPGEGVTLSCRASQSVSSNLAWYQQKPGQAPRLLMYGASIKATDVPDRFSGGGSGTDFTLSISSLQSEDFAVYYCQQYHTWPPVTFGGGTKVEIK
notes: VH-VL orientation; also called EP35-C08; not shown: C-terminal flag and 6xHIS tag

Where a chain is given by its changes, count along the chain named.

The first experiment concerns the target T1, human CD22-Fc fusion protein (human, UniProt P20273 20-687, limits assumed).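 Also: run in 1×HBST buffer, with the response of reference flow cell 1 subtracted from the CD22 capture cell and kinetics fitted in Biacore T200 evaluation software.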
T1 construct: also called recombinant CD22-Fc fusion protein; not shown: Fc part
T1 sequence (looked up): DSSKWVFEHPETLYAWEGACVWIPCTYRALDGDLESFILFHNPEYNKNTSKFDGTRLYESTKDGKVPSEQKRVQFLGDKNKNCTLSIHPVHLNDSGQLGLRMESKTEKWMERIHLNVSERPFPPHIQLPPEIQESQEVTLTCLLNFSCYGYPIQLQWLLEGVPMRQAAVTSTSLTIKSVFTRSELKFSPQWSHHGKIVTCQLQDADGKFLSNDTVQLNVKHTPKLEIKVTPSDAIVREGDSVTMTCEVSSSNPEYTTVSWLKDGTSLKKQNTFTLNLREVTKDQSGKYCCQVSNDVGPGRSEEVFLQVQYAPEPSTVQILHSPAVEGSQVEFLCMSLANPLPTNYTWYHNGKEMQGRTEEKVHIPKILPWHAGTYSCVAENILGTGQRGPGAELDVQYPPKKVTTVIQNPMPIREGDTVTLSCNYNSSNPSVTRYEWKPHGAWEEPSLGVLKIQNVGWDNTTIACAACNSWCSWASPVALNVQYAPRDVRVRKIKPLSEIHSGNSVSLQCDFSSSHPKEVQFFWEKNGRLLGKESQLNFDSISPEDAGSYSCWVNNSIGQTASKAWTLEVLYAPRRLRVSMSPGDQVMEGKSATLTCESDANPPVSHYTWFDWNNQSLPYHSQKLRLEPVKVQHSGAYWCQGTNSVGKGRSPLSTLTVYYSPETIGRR
The experiment is described as follows: SPR Biacore T200; CD22-Fc captured on Protein G chip, scFv as analyte. (In general: SPR reads the build-up and loss of mass on a sensor chip optically.)
Take B1: the Kd worked out at 15.8 nM, the off-rate (koff) was 0.000985 s⁻¹ and the kon amounted to 62500 M⁻¹ s⁻¹.

In the case of B2, the Kd is 1.84 nM, the off-rate (koff) was found to be 0.000112 s⁻¹ and the on-rate constant (kon) was determined as 60900 M⁻¹ s⁻¹.

The molecule B3 came in with a Kd of 11.3 nM, an off-rate (koff) of 0.00098 s⁻¹ and a kon of 86900 M⁻¹ s⁻¹.

B4: binding was put at a Kd of 14.2 nM, the off-rate (koff) is 0.00101 s⁻¹ and the on-rate (kon) was 71300 M⁻¹ s⁻¹.

Molecule B5 came in with a dissociation constant Kd of 5.52 nM, a koff of 0.00164 s⁻¹ and a kon of 297000 M⁻¹ s⁻¹.

The molecule B6 displayed a dissociation constant Kd of 0.166 nM, a koff of 4.19e-05 s⁻¹ and a kon of 252000 M⁻¹ s⁻¹.

Molecule B7 showed a Kd of 0.846 nM, a koff of 0.000318 s⁻¹ and a kon of 376000 M⁻¹ s⁻¹.

In the case of B8, the Kd came to 0.219 nM, the koff is 0.000195 s⁻¹ and the on-rate (kon) is 888000 M⁻¹ s⁻¹.

A further experiment addresses T2, full-length human CD22 fused with flag and Myc tags at the C-terminus, on HEK293 or K562 cells (human, UniProt P20273 20-847).
T2 construct: whole, on cells; also called CD22/K562; CD22/HEK293; not shown: C-terminal flag and Myc tags of the pCMV6-Entry vector
T2 sequence (looked up): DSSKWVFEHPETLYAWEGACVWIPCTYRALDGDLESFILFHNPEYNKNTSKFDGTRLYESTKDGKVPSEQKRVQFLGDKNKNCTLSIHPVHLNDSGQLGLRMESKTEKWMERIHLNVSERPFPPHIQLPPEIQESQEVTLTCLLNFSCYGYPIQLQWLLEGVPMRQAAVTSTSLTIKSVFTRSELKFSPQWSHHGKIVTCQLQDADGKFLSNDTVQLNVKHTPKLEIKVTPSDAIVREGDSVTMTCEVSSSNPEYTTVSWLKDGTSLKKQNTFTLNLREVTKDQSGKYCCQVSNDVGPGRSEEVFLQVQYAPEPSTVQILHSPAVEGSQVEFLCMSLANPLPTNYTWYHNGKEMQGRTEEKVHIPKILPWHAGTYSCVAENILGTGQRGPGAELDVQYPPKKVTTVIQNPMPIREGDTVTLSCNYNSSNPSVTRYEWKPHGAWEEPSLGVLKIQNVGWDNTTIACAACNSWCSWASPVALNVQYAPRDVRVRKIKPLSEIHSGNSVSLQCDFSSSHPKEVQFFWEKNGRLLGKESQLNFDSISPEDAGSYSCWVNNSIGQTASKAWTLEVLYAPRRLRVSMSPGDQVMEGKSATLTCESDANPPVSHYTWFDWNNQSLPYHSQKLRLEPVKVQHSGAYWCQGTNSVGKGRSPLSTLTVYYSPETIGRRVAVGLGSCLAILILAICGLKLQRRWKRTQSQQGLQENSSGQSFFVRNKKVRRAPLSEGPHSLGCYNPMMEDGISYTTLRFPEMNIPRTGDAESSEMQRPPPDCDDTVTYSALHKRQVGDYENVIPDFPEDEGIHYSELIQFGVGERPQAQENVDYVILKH
Put plainly: FACS, scFv titrated on CD22-expressing cells, anti-His Alexa 488. Background: In flow cytometry, cells or beads pass a laser one at a time.
The molecule B1 gave an EC50 of 19.3 nM.

B9 yielded an EC50 of 10.4 nM.

B2 registered an EC50 of 0.68 nM.

B5 yielded a concentration for a half-maximal effect (EC50) of 6.8 nM.

With B10, the midpoint of the response, the EC50, lay at 47 nM.

With B6, a half-maximal response (EC50) required 3.3 nM.

Regarding B11, the EC50 came to 14.2 nM.

B12 came in with an EC50 of 2.9 nM.

The molecule B7 showed an EC50 of 0.7 nM.

For B13, it took 77 nM to reach a half-maximal effect (EC50).

B14 came in with a concentration giving a half-maximal response (EC50) of 5.2 nM.

In turn, B8 yielded an EC50 of 10 nM.

With B15, the half-maximal effective concentration (EC50) came to 4.6 nM.

A word on the Kd: it is a measure of binding affinity in units of concentration. A high value points to a looser complex. Broadly, the koff is the rate constant with which the complex falls apart. Read a high koff as a short-lived complex. The term kon denotes the rate constant with which the complex forms. Low readings indicate slow association, high ones fast association. Broadly, the EC50 is the concentration needed to bring the measured effect to its halfway point.

The values above are taken from patent US20220298257A1 (ELPIS BIOPHARMACEUTICALS, published 2022).
